Assay results published in patent EP4778941A1 (Jiangsu Hengrui Pharmaceuticals Co., Ltd., dated 2025).
Like-named read-outs stand apart in the source and are kept apart here.

B1: Naked antibody of the control antibody U3-1402 (U3-1402 Ab) (antibody, human IgG1, kappa, V domains shown)
VH: QVQLQQWGAGLLKPSETLSLTCAVYGGSFSGYYWSWIRQPPGKGLEWIGEINHSGSTNYNPSLKSRVTISVETSKNQFSLKLSSVTAADTAVYYCARDKWTWYFDLWGRGTLVTVSS
VL: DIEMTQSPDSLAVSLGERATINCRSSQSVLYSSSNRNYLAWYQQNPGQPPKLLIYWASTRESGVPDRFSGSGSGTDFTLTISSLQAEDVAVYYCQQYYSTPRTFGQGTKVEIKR
notes: Anti-HER3 control
B2: Anti-HER3 antibody A (antibody, human IgG1, kappa, V domains shown)
VH: QVQLVQSGGGLVQPGRSLRLSCAASGFTFDDYAMHWVRQAPGKGLEWVSGISWNSGSIGYADSVKGRFTISRDNAKNSLYLQMNSLRAEDTALYYCAKEGLPGLDYWGQGTLVTVSS
VL: DIQMTQSPSSLSASIGDRATITCRASQHVGTYLNWYQQKPGKTPKLLISGAANLQSGVPSRFSGSGSGTDFTLTISSLQPEDFATYYCQQSYNTPPFSFGQGTKVEIKR
B3: Anti-HER3/MET bispecific antibody 2232-01 (A13-A) (bispecific antibody, human IgG1, kappa)
heavy 1: not shown
light 1: DIQMTQSPSSVSASVGDRVTITCRASQGINTWLAWYQQKPGKAPKLLIYAASSLKSGVPSRFSGSGSGADFTLTISSLQPEDFATYYCQQANSFPLTFGGGTKVEIKGGGGSGIPPKIECLPIDISIDEGKVLTVASAFTGEPTPEVTWSTGGRKIHSQEQGRFHIENTDDSTTLTIKDVQKQDGGLYTLTLRNEFGSDSATVNIHIRSI
heavy 2: QVQLVQSGGGLVQPGRSLRLSCAASGFTFDDYAMHWVRQAPGKGLEWVSGISWNSGSIGYADSVKGRFTISRDNAKNSLYLQMNSLRAEDTALYYCAKEGLPGLDYWGQGTLVTVSSASTKGPSVFPLAPSSKSTSGGTAALGCLVKDYFPEPVTVSWNSGALTSGVHTFPAVLQSSGLYSLSSVVTVPSSSLGTQTYICNVNHKPSNTKVDKKVEPKSCDKTHTCPPCPAPELLGGPSVFLFPPKPKDTLMISRTPEVTCVVVDVSHEDPEVKFNWYVDGVEVHNAKTKPREEQYNSTYRVVSVLTVLHQDWLNGKEYKCKVSNKALPAPIEKTISKAKGQPREPQVCTLPPSREEMTKNQVSLSCAVKGFYPSDIAVEWESNGQPENNYKTTPPVLDSDGSFFLVSKLTVDKSRWQQGNVFSCSVMHEALHNHYTQKSLSLSPGK
light 2: DIQMTQSPSSLSASIGDRATITCRASQHVGTYLNWYQQKPGKTPKLLISGAANLQSGVPSRFSGSGSGTDFTLTISSLQPEDFATYYCQQSYNTPPFSFGQGTKVEIKRTVAAPSVFIFPPSDEQLKSGTASVVCLLNNFYPREAKVQWKVDNALQSGNSQESVTEQDSKDSTYSLSSTLTLSKADYEKHKVYACEVTHQGLSSPVTKSFNRGEC
notes: Four chains: H1 = A13 VH-GGGGS-Obscurin-O chain-IgG1 Fc1 (S354C/T366W); L1 = A13 VL-GGGGS-Titin-T chain; H2 = antibody A VH-CH1-IgG1 Fc2 (Y349C/T366S/L368A/Y407V); L2 = antibody A VL-CL

How the values were obtained:
[1] = target: T1, Human MET protein on the cell surface (human, UniProt P08581 25-1390); assay: cell-based or functional assay
T1 sequence (P08581 25-1390): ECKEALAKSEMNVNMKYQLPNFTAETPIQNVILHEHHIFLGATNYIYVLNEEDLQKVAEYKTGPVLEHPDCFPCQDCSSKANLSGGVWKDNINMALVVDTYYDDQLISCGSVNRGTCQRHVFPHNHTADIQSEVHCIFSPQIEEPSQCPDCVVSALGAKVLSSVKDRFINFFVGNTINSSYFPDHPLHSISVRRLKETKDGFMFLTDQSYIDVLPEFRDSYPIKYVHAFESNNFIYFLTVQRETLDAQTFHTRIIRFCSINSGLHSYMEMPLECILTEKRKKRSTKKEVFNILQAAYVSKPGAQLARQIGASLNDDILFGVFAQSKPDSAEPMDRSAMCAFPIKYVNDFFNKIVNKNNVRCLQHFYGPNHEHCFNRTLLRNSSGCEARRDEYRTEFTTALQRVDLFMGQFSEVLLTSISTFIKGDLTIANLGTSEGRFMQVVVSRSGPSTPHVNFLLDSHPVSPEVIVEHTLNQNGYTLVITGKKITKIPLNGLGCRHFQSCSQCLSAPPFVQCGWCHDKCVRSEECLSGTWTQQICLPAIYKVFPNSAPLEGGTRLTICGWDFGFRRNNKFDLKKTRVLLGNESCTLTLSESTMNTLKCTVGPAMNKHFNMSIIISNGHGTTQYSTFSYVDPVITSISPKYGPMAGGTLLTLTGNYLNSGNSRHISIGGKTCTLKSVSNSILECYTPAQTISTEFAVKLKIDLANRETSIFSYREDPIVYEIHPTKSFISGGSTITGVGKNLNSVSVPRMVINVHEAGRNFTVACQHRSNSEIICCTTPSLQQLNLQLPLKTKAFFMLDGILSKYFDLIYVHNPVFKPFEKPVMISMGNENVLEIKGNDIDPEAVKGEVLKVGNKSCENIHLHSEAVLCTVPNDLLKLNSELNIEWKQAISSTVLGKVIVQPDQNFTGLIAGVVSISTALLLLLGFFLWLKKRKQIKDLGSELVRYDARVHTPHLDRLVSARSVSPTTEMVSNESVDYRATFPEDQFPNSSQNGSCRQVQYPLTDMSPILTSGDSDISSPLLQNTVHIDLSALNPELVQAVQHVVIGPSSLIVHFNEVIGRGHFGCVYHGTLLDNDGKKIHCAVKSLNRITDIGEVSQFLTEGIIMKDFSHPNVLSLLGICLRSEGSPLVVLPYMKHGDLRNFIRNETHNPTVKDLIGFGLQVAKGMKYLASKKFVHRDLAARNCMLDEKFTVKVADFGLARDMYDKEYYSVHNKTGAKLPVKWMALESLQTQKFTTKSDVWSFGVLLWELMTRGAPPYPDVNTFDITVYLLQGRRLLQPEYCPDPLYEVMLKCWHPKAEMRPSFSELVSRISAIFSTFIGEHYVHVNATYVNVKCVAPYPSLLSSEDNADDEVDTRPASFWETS

[2] = target: T2, Human HER3 protein on the cell surface (human, UniProt P21860 20-1342); assay: FACS on HCC827 Osimertinib-resistant cells (HER3/MET double-positive)
T2 construct: whole, on cells; also called HER3 single-positive cells (MDA-MB-453)

[3] = target: T2, Human HER3 protein on the cell surface; assay: FACS on MDA-MB-453 cells (HER3 single-positive)
[4] = target: T1, Human MET protein on the cell surface; assay: FACS on NCI-H1703 cells (MET single-positive)
[5] = target: T2, Human HER3 protein on the cell surface; assay: cell-based or functional assay
[6] = target: T2, Human HER3 protein on the cell surface; assay: cell-based or functional assay; remark: listed apart in the source
[7] = target: T3, His-tagged human HER3 antigen (human, UniProt P21860 20-643); assay: SPR, Biacore 8K; antibody captured, His-tagged human HER3 antigen 6.25-400 nM as analyte; 1:1 Langmuir
T3 construct: Soluble antigen used as analyte in SPR; not shown: His tag

[8] = target: T2, Human HER3 protein on the cell surface; assay: cell-based or functional assay; remark: listed apart in the source
[9] = target: T4, Human HER3 and MET proteins together on HER3/MET double-positive cells (human, UniProt P21860 20-1342; P08581 25-1390); assay: FACS on HCC827 Osimertinib-resistant cells (HER3/MET double-positive)
T4 construct: whole, on cells; Used as target for the bispecific molecules and the isotype control on double-positive cells; monospecific antibodies on these cells are written against their own target; also called HER3/MET antigen on the cell surface; HCC827 Osimertinib-resistant cell strain

[10] = target: T4, Human HER3 and MET proteins together on …; assay: cell-based or functional assay
[11] = target: T4, Human HER3 and MET proteins together on …; assay: cell-based or functional assay; remark: listed apart in the source
[12] = target: T4, Human HER3 and MET proteins together on …; assay: cell-based or functional assay; remark: listed apart in the source

Binder	Minimum cell viability (%) [1]	EC50 [2]	Maximum fluorescence value [2]	EC50 [3]	Maximum fluorescence value [3]	Maximum fluorescence value [4]	Minimum cell viability (%) [5]	Minimum cell viability (%) [6]	also measured
B1	72.9%	0.46 nM	1240	0.25 nM	1990	90	63.9%	73.6%	–
B2	77.8%	2.06 nM	1020	0.48 nM	1860	81	28.5%	63.8%	Kd [7]: 14.5 nM; koff [7]: 0.0103 s⁻¹; kon [7]: 707000 M⁻¹ s⁻¹; Endocytosis ratio at 0 h (FACS) [8]: 0%; Endocytosis ratio at 0.5 h (FACS) [8]: 55.5%; Endocytosis ratio at 2 h (FACS) [8]: 80%; Endocytosis ratio at 6 h (FACS) [8]: 82.2%
B3	0.6%	–	–	2.72 nM	1950	2430	21.7%	–	EC50 [9]: 0.52 nM; Maximum fluorescence value [9]: 2470; Minimum cell viability (%) [10]: 12.4%; EC50 [4]: 1.03 nM; Minimum cell viability (%) [11]: 24.7%; Endocytosis ratio at 0 h (FACS) [12]: 0%; Endocytosis ratio at 0.5 h (FACS) [12]: 67.9%; Endocytosis ratio at 2 h (FACS) [12]: 83.2%; Endocytosis ratio at 6 h (FACS) [12]: 84.1%
